Among the data in paper PMC6366860 (Journal of molecular and cellular cardiology, 2018) are Kd values, retold here.

This assay concerns the target F-actin from rabbit skeletal muscle (rabbit, UniProt P68135 1-377). Description: co-sedimentation.

B1: mouse short form C0-C2, C-terminal tagged (mSF1), lacking the 8 amino acid NTE (domain or fragment)
chain: PEPGKKPVSAFNKKPRSAEVTAGSAAVFEAETERSGVMVRWQRDGSDITANDKYGLAAEGKRHTLTVRDASPDDQGSYAVIAGSSKVKFDLKVTEPAPPEKAESEVAPGAPEEVPAPATELEESVSSPEGSVSVTQDGSAAEHQGAPDDPIGLFLMRPQDGEVTVGGSIVFSARVAGASLLKPPVVKWFKGKWVDLSSKVGQHLQLHDSYDRASKVYLFELHITDAQTTSAGGYRCEVSTKDKFDSCNFNLTVHEAIGSGDLDLRSAFRRTSLAGAGRRTSDSHEDAGTPDFSSLLKKRDSFRRDSKLEAPAEEDVWEILRQAPPSEYERIAFQHGVEACHRPLKRLKGMKQDEKKSTAFQKKLEPAYQVNKGHKIRLTVELADPDAEVKWLKNGQEIQMSGSKYIFESVGAKRTLTISQCSLADDAAYQCVVGGEKCSTELFVKEP
One may read the Kd as the equilibrium constant for the complex coming apart. B1 returned a Kd of 10.7 µM.
